Each block holds one binder with its values, some of them ahead of it.
Molecular target: T1, Abp1 SH3 (ABP1_YEAST), P15891
T1 chain: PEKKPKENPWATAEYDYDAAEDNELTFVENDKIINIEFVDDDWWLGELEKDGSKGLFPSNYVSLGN
Experiment: SPOT array

normalised SPOT signal, Boehringer light units (BLU); mean over the file's lines of this peptide: 156
B1: YNR014W 72-85 (peptide)
chain: LNVSAPVVADPTRP

normalised SPOT signal, Boehringer light units (BLU); mean over the file's lines of this peptide: 97.9
B2: YLR436C 877-890 (peptide)
chain: LNLQHQLEYWPHRP

normalised SPOT signal, Boehringer light units (BLU); mean over the file's lines of this peptide: 117
B3: YCR012W 192-205 (peptide)
chain: LKYFGKALENPTRP

normalised SPOT signal, Boehringer light units (BLU); mean over the file's lines of this peptide: 177
B4: YKR056W 387-400 (peptide)
chain: LLRENTTILDPSKP

normalised SPOT signal, Boehringer light units (BLU); mean over the file's lines of this peptide: 188
B5: YPR013C 154-166 (peptide)
chain: LMMPVMVPTVYKP

normalised SPOT signal, Boehringer light units (BLU); mean over the file's lines of this peptide: 54.3
B6: YNL061W 602-614 (peptide)
chain: LLKKGVNPKAKRP

normalised SPOT signal, Boehringer light units (BLU); mean over the file's lines of this peptide: 66
B7: YLR022C 137-149 (peptide)
chain: LQELKFSPVINKP

normalised SPOT signal, Boehringer light units (BLU); mean over the file's lines of this peptide: 140
B8: YML113W 123-136 (peptide)
chain: LLQQQRVDVVPPKP

normalised SPOT signal, Boehringer light units (BLU); mean over the file's lines of this peptide: 130
B9: YNL091W 1210-1222 (peptide)
chain: LNDPTATPFTSRP

normalised SPOT signal, Boehringer light units (BLU); mean over the file's lines of this peptide: 135
B10: YGR184C 639-652 (peptide)
chain: LLSKVHDPNIPLRP

normalised SPOT signal, Boehringer light units (BLU); mean over the file's lines of this peptide: 79.6
B11: YDR425W 249-262 (peptide)
chain: LNNLLAPPLSPTKP

normalised SPOT signal, Boehringer light units (BLU); mean over the file's lines of this peptide: 111
B12: YPL063W 179-191 (peptide)
chain: LLPPPPPPPYQRP

normalised SPOT signal, Boehringer light units (BLU); mean over the file's lines of this peptide: 74.4
B13: YKL105C 259-271 (peptide)
chain: LQEDLHDPLEFKP

normalised SPOT signal, Boehringer light units (BLU); mean over the file's lines of this peptide: 144
B14: YDL033C 6-19 (peptide)
chain: LNLIGRRSASPYRP

normalised SPOT signal, Boehringer light units (BLU); mean over the file's lines of this peptide: 185
B15: YBR133C 322-335 (peptide)
chain: LLQEDSRIMPPLKP

normalised SPOT signal, Boehringer light units (BLU); mean over the file's lines of this peptide: 171
B16: YOR059C 245-258 (peptide)
chain: LNALNVNSHAPTKP

normalised SPOT signal, Boehringer light units (BLU); mean over the file's lines of this peptide: 50.6
B17: YGL131C 434-446 (peptide)
chain: LNDSMFFPYPFKP

normalised SPOT signal, Boehringer light units (BLU); mean over the file's lines of this peptide: 1070
B18: YFL021W 256-268 (peptide)
chain: LLRRNPSPSIVKP

normalised SPOT signal, Boehringer light units (BLU); mean over the file's lines of this peptide: 41.3
B19: YBR118W 226-239 (peptide)
chain: LLEAIDAIEQPSRP

normalised SPOT signal, Boehringer light units (BLU); mean over the file's lines of this peptide: 19.6
B20: YDL180W 44-56 (peptide)
chain: LLHQYDDPLMFKP

normalised SPOT signal, Boehringer light units (BLU); mean over the file's lines of this peptide: 114
B21: YIL168W 85-97 (peptide)
chain: LNSSVVVPKTTKP

normalised SPOT signal, Boehringer light units (BLU); mean over the file's lines of this peptide: 153
B22: YIL108W 388-400 (peptide)
chain: LPQDYYDPSFMRP

normalised SPOT signal, Boehringer light units (BLU); mean over the file's lines of this peptide: 249
B23: YKR047W 79-91 (peptide)
chain: LLRLRPRPLLLRP
